Laboratory results: patent US20240352134A1

Experiments:
human CCR8 (human) [1] = biological target: human CCR8 (human) (UniProt P51685); assay: binding affinity EC50, comparison of Table 12 (FACS on CCR8-expressing cells)
human CCR8 (human) [2] = biological target: human CCR8 (human) (UniProt P51685); assay: cell-based or functional assay

Chain of human CCR8 (human) (P51685 whole entry): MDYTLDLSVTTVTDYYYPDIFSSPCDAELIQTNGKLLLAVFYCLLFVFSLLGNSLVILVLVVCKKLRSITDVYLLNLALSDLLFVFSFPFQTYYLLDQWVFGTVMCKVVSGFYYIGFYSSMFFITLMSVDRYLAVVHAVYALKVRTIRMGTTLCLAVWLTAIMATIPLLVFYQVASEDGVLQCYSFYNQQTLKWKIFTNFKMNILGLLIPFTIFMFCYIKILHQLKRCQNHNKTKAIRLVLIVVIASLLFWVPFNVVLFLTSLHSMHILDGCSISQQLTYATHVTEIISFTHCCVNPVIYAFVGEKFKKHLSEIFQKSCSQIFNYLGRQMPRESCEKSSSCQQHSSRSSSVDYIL

EC50 (human CCR8 (human) [1]): 3.2 nM
Signal block Ca2+ (human CCR8 (human) [2]): 179 nM
B1: SRF-114 (antibody, from another filing, V domains shown)
VH: QVQLVQSGAEVKKPGASVKVSCKASGYTFTSYYMHWVRQAPGQGLEWMGIINPSGGSTSYAQKFQGRVTMTRDTSTSTVYMELSSLRSEDTAVYYCARAVRNRFRFDYWGQGTLVTVSS
VL: QSALTQPASVSGSPGQSITISCTGTSSDVGSYNLVSWYQQHPGKAPKLMIYEVSKRPSGVSNRFSGSKSGNTASLTISGLQAEDEADYYCSSYAGSSTFVVFGGGTKLTVL
